According to article PMC12293987, “Dissecting the tRNA Fragment tRF3E–Nucleolin Interaction: Implications in Breast Cancer”:

Key:
Nucleolin (NCL) [1] = biological target: T1, Nucleolin (NCL) (UniProt P19338 1-710); experiment: EMSA; printed as KD >= 1500 nM; still interacts with very low affinity; 20 mM Tris-HCl pH 7.5, 50 mM KCl, 10% glycerol, 0.3 mg/mL BSA, 0.02% Nonidet P-40, 15 uL, 2 pmol 32P-RNA, 20 °C 30 min (competition: further 30 min); native 7%; conditions: protein: recombinant; tags: His; label: 32P; predicted fold, CGA in bubble
Nucleolin (NCL) [2] = biological target: T1, Nucleolin (NCL); experiment: EMSA; complex I, NCL in excess; Kd taken as protein concentration retarding 50% of probe; 20 mM Tris-HCl pH 7.5, 50 mM KCl, 10% glycerol, 0.3 mg/mL BSA, 0.02% Nonidet P-40, 15 uL, 2 pmol 32P-RNA, 20 °C 30 min (competition: further 30 min); native 7%; conditions: protein: recombinant, tags: His
Nucleolin (NCL) [3] = biological target: T1, Nucleolin (NCL); experiment: EMSA; complete loss of retardation; 20 mM Tris-HCl pH 7.5, 50 mM KCl, 10% glycerol, 0.3 mg/mL BSA, 0.02% Nonidet P-40, 15 uL, 2 pmol 32P-RNA, 20 °C 30 min (competition: further 30 min); native 7%; conditions: protein: recombinant; tags: His; label: 32P; predicted fold, CGA at junction of double-stranded and unstructured region

T1 sequence (P19338 whole entry): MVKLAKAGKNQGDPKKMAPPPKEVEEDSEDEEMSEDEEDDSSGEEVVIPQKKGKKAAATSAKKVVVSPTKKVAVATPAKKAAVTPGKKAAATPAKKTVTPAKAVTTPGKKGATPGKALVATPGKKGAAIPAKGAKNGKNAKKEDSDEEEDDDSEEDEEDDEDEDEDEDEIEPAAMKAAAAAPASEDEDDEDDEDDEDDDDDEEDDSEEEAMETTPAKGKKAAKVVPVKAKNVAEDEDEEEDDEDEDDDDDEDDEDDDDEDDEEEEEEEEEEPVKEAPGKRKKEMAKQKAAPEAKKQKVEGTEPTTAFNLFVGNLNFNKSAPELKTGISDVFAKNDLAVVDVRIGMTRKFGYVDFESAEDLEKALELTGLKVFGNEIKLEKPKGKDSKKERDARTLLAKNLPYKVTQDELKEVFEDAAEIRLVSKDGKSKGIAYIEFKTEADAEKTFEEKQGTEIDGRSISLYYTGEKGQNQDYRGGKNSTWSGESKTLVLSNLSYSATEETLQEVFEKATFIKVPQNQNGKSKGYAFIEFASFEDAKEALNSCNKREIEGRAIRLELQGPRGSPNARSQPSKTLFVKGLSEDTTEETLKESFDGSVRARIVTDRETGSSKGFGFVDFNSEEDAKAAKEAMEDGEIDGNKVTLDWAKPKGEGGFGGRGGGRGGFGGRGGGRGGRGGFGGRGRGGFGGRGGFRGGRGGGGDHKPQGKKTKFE

For AGGCGGAAAUGGUUCGACUAAAUGUGUGGGAA (structured_RNA) [D2M], the Kd (Nucleolin (NCL) [1]) was over 1500 nM.

AGGCGGCCCGGGUUCGACUCCCGGUGUGGGAA (structured_RNA) [wt tRF3E] gave a Kd (Nucleolin (NCL) [2]; hairpin (predicted stems, CGA 15-17 in loop)) of about 280 nM.

Binder AGGCGGCCCGGGUUCGACUAAAUGUGUGGGAA (structured_RNA) [M19-24] has a Kd (Nucleolin (NCL) [2]; hairpin (predicted, CGA 15-17 in loop)) of about 280 nM.

AGGCGGAAAUGGUUCGACUCCCGGUGUGGGAA (structured_RNA) [M6-11]: no binding (Nucleolin (NCL) [3]).
